Experimental data reported in US20090215098A1, “QUANTIFICATION OF ENZYME ACTIVITY BY MASS SPECTROMETRY” (UCL BUSINESS PLC., priority 2006, published 2009).

Tests used:
Akt [1] = assay: Akt activity in B cell lysates in the presence of PI3K activators with or without inhibitor; format: cell-based, mouse; conditions: PI3K activators (sodium pervanadate and anti-IgM) present; with vs without inhibitor; FIG. 3C
Method: (§1) The activity of recombinant Akt/PKB was measured using the methods of the invention. Recombinant Akt/PKB was purchased from Upstate (Hampshire, UK). A 5.0 μL aliquot of […] (SEQ ID. NO: 7), 7.5 mM magnesium chloride, 0.15 mM EDTA, 7.5 mM β-glycerol phosphate, 0.1 mM sodium orthovanadate, and 0.1 mM DTT was mixed with 2.5 μL solution of Akt/PKB of various amounts: 0.004, 0.04, 0.2, 0.8, 4, 20, and 80 ng. The incubation time of each reaction was from between 2 minutes to 18 hours. Reactions were stopped with the addition of 7.5 μL of a 1% trifluoroacetic acid solution containing 1 pmol/μL internal standard (mass labeled SEQ ID NO: 39). Aliquots (0.5 μL out of a total of […]) from each reaction were analyzed by either MALDI-TOF MS (Ultraflex, Bruker) or LC-MS/MS (Ultimate HPLC, Dionex, connected to a Micromass/Waters Q-TOF instrument) using a nanoESI interface. Reaction products were analyzed by LC-MS/MS without further treatment. […]
(§2) Mouse WEHI-231 B lymphoma cell line was cultured as described in Cutillas et al., Mol Cell Proteomics 4:1038-51 (2005), incorporated herein in its entirety by reference. […] After centrifugation at 20,000×g, cell lysates were ready to use as enzyme sources. The enzyme activity of Akt in varying amounts of cell lysate (0.033, 0.067, 0.33, and 0.67 μg) was measured in the protocol outlined in example 2. […]

Akt [2] = assay: MS quantification of activity of Akt immunoprecipitates from B lymphoma cells; format: cell-based, mouse; conditions: addition of PI3K inhibitor, FIG. 3B
Method: as §1, §2

Akt [3] = assay: MS quantification of Akt activity in B lymphoma cell lysates treated with PI3K inhibitors; format: cell-based, mouse; conditions: B lymphoma cell line WEHI-231; varying concentrations of inhibitor; FIG. 3A
Method: as §1, §2

[4] = test system: T1, MAP Kinase peptide substrate (SEQ ID NO: 10)
T1 sequence: APRTPGGRR

[5] = test system: T2, S6 Kinase/Rsk peptide substrate (SEQ ID NO: 5)
T2 sequence: RRRLSSLRA

[6] = test system: T3, Akt peptide substrate (SEQ ID NO: 7)
T3 sequence: RPRAATF

[7] = test system: Protein Kinase C peptide substrate (SEQ ID NO: 23)
[8] = test system: T4, PKC peptide substrate (SEQ ID NO: 12)
T4 sequence: QKRPSQRSKYL

COC[C@H]1OC(=O)c2coc3c2[C@@]1(C)C1=C(C3=O)[C@@H]2CCC(=O)[C@@]2(C)C[C@H]1OC(C)=O [WM]
Activity of Akt in B cell lysates (Akt [1]): sensitive to the presence or absence of the inhibitor
Activity of Akt immunoprecipitates (Akt [2]): similarly affected
Activity of the Akt enzyme in cell lysates (Akt [3]): decreased enzyme activity

Cc1ccccc1-n1c(Cn2cnc3c(N)ncnc32)nc2cccc(C)c2c1=O [IC87114]
Activity of the Akt enzyme in cell lysates (Akt [3]): decreased enzyme activity

recombinant Erk
extracted mass chromatogram of enzymatic product (LC-MS), time points 0, 10, 30, 60 min [4]: c) corresponds to phosphorylation of SEQ ID NO: 10 by Erk

recombinant S6 p70 kinase
extracted mass chromatogram of enzymatic product (LC-MS), time points 0, 10, 30, 60 min [5]: b) corresponds to phosphylation of SEQ ID NO: 5 by S6 p70 kinase

recombinant Akt/PKB
enzymatic activity (phosphorylated peptide product quantified by MALDI-TOF MS or LC-MS/MS) [6]: capable of detecting enzymatic activity down to the zeptommole range

recombinant PKC
extracted mass chromatogram of enzymatic product (LC-MS), time points 0, 10, 30, 60 min [7]: d) corresponds to phosphorylation of SEQ ID NO: 23 by PKC
extracted mass chromatogram of enzymatic product (LC-MS), time points 0, 10, 30, 60 min [8]: a) corresponds to phosphorylation of SEQ ID NO: 12 by PKC
